Reference: PMC11952967

Key:
[1] = target: MUTYH W131* (c.309G > A) (human (endogenous in HEK293T)); test: co-IP; MUTYH immunoprecipitated with MUTYH (C-6) antibody on Protein G Dynabeads from nuclear extract of wild-type or homozygous mutant HEK293T cells treated with 0.5 mM H2O2 for 1 h; 1 h at 4°C in PBST; blotted for APE1; APE1 signal quantified relative to MUTYH and normalised to unedited cells
[2] = target: MUTYH D271G (c.728A > G) (human (endogenous in HEK293T)); test: as above
[3] = target: MUTYH L296L (c.802C > T) (human (endogenous in HEK293T)); test: as above
[4] = target: MUTYH L111P (c.248T > C) (human (endogenous in HEK293T)); test: as above
[5] = target: MUTYH W131* (c.309G > A) (human (endogenous in HEK293T))
[6] = target: MUTYH D271G (c.728A > G) (human (endogenous in HEK293T))

MUTYH D271G (c.728A > G) (human (endogenous in HEK293T)), sequence (Q9UIF7 whole entry, stated change not applied): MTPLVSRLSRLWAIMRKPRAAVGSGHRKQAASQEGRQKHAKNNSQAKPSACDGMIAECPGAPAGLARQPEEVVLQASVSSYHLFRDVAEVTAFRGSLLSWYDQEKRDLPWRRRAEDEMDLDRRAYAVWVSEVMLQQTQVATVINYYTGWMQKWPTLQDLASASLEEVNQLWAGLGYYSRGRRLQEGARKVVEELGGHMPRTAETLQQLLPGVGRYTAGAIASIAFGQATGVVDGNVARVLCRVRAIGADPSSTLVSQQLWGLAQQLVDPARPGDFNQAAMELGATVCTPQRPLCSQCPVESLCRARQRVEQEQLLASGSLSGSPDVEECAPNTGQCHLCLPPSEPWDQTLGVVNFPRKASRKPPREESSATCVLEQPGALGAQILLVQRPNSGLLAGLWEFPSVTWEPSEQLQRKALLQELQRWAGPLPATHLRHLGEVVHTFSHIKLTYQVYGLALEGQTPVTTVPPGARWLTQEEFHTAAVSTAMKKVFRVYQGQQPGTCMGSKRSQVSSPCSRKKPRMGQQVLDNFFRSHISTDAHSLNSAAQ
MUTYH L111P (c.248T > C) (human (endogenous in HEK293T)), sequence (Q9UIF7 whole entry, stated change not applied): as above
MUTYH L296L (c.802C > T) (human (endogenous in HEK293T)), sequence (Q9UIF7 whole entry): as the sequence (Q9UIF7 whole entry, stated change not applied) above

“APE1 (apurinic/apyrimidinic endodeoxyribonuclease 1) (from UniProt P27695 1-318) (enzyme)” showed an APE1 signal relative to MUTYH in the MUTYH immunoprecipitate, normalised to wild type (relative to wild-type levels) [1] of 0.21, an APE1 signal relative to MUTYH in the MUTYH immunoprecipitate, normalised to wild type (relative to wild-type levels) [2] of 0.29 and an APE1 signal relative to MUTYH in the MUTYH immunoprecipitate, normalised to wild type (relative to wild-type levels) [3] of 0.8. For the same substance, the APE1 signal relative to MUTYH in the MUTYH immunoprecipitate, normalised to wild type (relative to wild-type levels) [4] was 0.82, the 8-oxoG•[O] repair efficiency (average fold-change in MFI of EGFP+ cells compared to that of unedited HEK293T cells), homozygous W131* clones (fold of unedited HEK293T cells) [5] was 0.34 and the 8-oxoG•[O] repair efficiency (average fold-change in MFI of EGFP+ cells compared to that of unedited HEK293T cells), homozygous D271G clones (fold of unedited HEK293T cells) [6] was 0.56.
